Measured values taken from PMC6010752, “Development of GMP‐1 a molecular chaperone network modulator protecting mitochondrial function and its assessment in fly and mice models of Alzheimer's disease” (Journal of Cellular and Molecular Medicine, 2018).
Ends that are not written are not given here.

T1: Tom34 (Homo sapiens, UniProt Q15785)
T1 construct: gene TOMM34; full-length (Gst-tag-free)
T1 sequence (Q15785 1-309): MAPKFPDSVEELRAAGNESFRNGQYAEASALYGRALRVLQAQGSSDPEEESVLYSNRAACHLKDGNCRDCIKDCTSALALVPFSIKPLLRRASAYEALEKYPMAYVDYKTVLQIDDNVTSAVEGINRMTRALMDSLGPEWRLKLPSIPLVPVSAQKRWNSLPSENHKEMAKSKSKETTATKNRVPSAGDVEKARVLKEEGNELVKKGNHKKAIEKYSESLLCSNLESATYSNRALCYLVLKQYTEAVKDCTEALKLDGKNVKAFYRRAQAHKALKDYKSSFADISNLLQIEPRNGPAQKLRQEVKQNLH

T2: Tom70 (Homo sapiens, UniProt O94826)
T2 construct: gene TOMM70; cytoplasm-exposed domain of Tom70, amino acids 65-608 (Gst-tag-free)
T2 sequence (O94826 65-608): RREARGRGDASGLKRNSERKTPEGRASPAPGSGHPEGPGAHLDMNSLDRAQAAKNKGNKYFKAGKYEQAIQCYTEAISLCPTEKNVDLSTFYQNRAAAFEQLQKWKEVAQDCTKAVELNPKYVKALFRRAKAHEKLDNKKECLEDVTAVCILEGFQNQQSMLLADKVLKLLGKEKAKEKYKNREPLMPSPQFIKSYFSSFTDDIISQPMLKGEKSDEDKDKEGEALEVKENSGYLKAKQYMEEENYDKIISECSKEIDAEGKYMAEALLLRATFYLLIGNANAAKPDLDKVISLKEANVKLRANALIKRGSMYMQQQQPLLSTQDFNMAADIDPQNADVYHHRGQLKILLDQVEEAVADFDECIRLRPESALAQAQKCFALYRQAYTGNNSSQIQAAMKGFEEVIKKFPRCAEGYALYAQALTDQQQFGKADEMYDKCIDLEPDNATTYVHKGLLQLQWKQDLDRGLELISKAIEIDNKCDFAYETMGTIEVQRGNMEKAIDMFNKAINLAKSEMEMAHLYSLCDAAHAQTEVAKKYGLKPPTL

T3: FKBP51 (Homo sapiens, UniProt Q13451)
T3 construct: gene FKBP5; full-length (Gst-tag-free)
T3 sequence (Q13451 1-457): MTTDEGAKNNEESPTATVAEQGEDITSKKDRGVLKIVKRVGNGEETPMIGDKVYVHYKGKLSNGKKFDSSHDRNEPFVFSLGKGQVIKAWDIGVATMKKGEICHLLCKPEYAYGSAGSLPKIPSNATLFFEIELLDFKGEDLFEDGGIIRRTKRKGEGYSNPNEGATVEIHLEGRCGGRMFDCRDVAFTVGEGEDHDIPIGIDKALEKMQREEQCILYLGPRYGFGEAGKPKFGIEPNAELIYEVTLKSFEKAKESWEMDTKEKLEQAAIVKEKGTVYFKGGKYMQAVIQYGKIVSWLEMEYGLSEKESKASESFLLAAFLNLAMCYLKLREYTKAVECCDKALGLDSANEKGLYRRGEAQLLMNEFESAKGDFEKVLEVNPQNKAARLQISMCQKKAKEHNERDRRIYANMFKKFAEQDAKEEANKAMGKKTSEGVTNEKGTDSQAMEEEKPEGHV

T4: Tom70, cytoplasm‐exposed domain, amino acids 65‐608 (human, UniProt O94826 65-608)
T4 construct: Tom70, human, mitochondrial import receptor, cytoplasm‐exposed domain, amino acids 65‐608; Cloned into a pGEX6 vector; cDNA from the IMAGE consortium; also called human Tom70 protein; source: E. coli BL21, purified (Gst‐trap 4B), Gst removed with PreScission protease
T4 sequence (looked up): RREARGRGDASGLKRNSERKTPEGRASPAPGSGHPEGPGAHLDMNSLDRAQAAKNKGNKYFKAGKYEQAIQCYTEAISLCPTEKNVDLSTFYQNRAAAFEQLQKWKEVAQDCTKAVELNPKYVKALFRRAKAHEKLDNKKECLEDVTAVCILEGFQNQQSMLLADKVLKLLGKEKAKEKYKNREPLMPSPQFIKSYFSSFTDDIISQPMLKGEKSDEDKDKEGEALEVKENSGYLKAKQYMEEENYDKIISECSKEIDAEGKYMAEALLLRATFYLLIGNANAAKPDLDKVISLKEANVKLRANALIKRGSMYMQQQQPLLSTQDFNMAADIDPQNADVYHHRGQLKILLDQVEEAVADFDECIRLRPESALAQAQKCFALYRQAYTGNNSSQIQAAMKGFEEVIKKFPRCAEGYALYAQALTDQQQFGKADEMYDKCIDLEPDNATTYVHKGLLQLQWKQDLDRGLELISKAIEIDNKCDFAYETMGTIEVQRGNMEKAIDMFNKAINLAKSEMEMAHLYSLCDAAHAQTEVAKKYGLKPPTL

T5: PP5 (human, UniProt P53041 1-499)
T5 construct: PP5, human TPR protein, full length; Cloned into a pGEX6 vector; cDNA from the IMAGE consortium; source: E. coli BL21, purified (Gst‐trap 4B), Gst removed with PreScission protease
T5 sequence (looked up): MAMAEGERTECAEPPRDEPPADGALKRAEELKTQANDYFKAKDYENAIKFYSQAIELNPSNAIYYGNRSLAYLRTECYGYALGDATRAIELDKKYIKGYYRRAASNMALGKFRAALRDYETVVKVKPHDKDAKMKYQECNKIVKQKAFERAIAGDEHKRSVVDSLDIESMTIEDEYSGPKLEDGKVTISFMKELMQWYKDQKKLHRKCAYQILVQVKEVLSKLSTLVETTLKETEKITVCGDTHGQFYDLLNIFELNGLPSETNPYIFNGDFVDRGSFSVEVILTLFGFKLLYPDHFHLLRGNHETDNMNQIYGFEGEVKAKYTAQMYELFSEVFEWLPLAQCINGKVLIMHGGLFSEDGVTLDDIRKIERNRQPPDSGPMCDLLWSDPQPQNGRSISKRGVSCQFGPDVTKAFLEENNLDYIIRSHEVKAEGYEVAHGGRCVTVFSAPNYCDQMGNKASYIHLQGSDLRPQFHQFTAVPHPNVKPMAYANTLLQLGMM

T6: FKBP51 (human, UniProt Q13451 1-457)
T6 construct: FKBP51, human TPR protein, full length; Cloned into a pGEX6 vector; cDNA from the IMAGE consortium; source: E. coli BL21, purified (Gst‐trap 4B), Gst removed with PreScission protease
T6 sequence (looked up): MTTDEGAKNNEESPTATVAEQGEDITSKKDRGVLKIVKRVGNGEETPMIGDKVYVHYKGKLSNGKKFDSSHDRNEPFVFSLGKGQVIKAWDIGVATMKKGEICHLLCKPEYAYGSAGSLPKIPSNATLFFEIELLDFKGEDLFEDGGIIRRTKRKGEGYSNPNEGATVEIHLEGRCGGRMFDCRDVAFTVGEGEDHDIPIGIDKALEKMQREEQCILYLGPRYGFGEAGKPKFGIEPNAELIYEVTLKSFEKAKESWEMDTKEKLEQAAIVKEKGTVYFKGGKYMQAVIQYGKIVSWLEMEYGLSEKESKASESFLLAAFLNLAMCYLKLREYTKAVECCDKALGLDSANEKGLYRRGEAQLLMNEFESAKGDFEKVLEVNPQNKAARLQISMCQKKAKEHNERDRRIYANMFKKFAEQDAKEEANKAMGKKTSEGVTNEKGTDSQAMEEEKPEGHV

T7: Tom34 (human, UniProt Q15785 1-309)
T7 construct: Tom34, human TPR protein, full length; Cloned into a pGEX6 vector; cDNA from the IMAGE consortium; source: E. coli BL21, purified (Gst‐trap 4B), Gst removed with PreScission protease
T7 sequence (looked up): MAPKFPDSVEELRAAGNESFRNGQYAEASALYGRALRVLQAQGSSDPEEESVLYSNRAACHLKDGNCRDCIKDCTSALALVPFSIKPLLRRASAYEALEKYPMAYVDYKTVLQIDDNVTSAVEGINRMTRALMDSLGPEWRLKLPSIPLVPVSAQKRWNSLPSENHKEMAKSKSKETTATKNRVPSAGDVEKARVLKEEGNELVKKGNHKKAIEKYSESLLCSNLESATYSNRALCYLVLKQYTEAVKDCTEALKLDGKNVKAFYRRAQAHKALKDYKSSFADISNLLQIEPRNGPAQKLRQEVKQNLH


Assays:
[1] = biological target: T1, Tom34; experiment: dot-blot competition of Hsp90 C-terminal peptide-HRP (C90-HRP) with purified protein; format: binding
[2] = biological target: T2, Tom70; experiment: as above; format: binding
[3] = biological target: T3, FKBP51; experiment: as above; format: binding
[4] = biological target: T4, Tom70, cytoplasm‐exposed domain, amino …; experiment: far-Western, overlay or dot blot; Gst‐tag‐free proteins applied to nitrocellulose membrane, blocked with 3% BSA in TBS‐T; C90‐HRP (1 × 500 dilution) incubated for 1 hour; ECL signal; with DMSO or increasing concentrations of the compound GMP‐1; details: both partners purified
[5] = biological target: T5, PP5; experiment: as above; details: both partners purified
[6] = biological target: T6, FKBP51; experiment: as above; details: both partners purified
[7] = biological target: T7, Tom34; experiment: as above; details: both partners purified

IC50 [1] | IC50 [2] | IC50 [3] | binding result [4] | binding result [5] | binding result [6] | binding result [7] | Molecule
180 µM | 45 µM | 150 µM | – | – | – | – | COCc1cc(O)n2c(n1)nc1ccccc12 [GMP-1, 2‐(methoxymethyl)pyrimido[1,2‐a]benzimidazol‐4‐ol]
– | – | – | binds | binds | binds | binds | HHHHHHDDTSRMEEVD-OH (also: coupled to horse-radish peroxidase (HRP), 10 amino acids of the C‐terminus of human Hsp90 alpha; also called Hsp90‐derived peptide; Hsp90 peptide conjugated to HRP; source: synthetic peptide (GL Biochem, Shanghai), coupled to HRP with the Lightning‐link HRP labeling kit; not shown: His6, N-terminal, kept)
